# Laboratory results reported in article PMC4121272, “Two β-Galactosidases from the Human Isolate Bifidobacterium breve DSM 20213: Molecular Cloning and Expression, Biochemical Characterization and Synthesis of Galacto-Oligosaccharides” (PLoS ONE, 2014).
# Columns and labels:
# [1] = target: β-galactosidase β-gal I from Bifidobacterium breve DSM 20213 (Bifidobacterium breve DSM 20213); test: SEC-MALS; Superdex S200 10/300 GL; 20 mM Tris pH 7.5, 150 mM NaCl, 1 mM β-mercaptoethanol, 5 mM EDTA; room temperature; 50 µL injected at 2.5 mg/mL; on-line MALLS and refractive index
# [2] = target: β-galactosidase β-gal II from Bifidobacterium breve DSM 20213 (Bifidobacterium breve DSM 20213); test: as above
stoichiometry N [1],stoichiometry N [2],Substance
2,–,β-galactosidase β-gal I from Bifidobacterium breve DSM 20213 (enzyme)
–,2,β-galactosidase β-gal II from Bifidobacterium breve DSM 20213 (enzyme)
